Test results reported in patent US8084228B2, “Nogo-B receptor antagonists” (Yale University, priority 2006, dated 2011).
Values belong to the molecule of their own block, whether it stands above or below them.

What was measured:
NgBR [1] = target: T1, NgBR (Homo sapiens, UniProt Q96E22); experiment: AP fusion protein binding to CHO cells expressing NgBR; set-up: an isolated cDNA encoding NgBR is 2,636 base pairs encoding an open reading frame of 293 amino acids; expressed in transfected cells; conditions: increasing concentrations of purified Am-Nogo-B
T1 sequence (Q96E22 1-293): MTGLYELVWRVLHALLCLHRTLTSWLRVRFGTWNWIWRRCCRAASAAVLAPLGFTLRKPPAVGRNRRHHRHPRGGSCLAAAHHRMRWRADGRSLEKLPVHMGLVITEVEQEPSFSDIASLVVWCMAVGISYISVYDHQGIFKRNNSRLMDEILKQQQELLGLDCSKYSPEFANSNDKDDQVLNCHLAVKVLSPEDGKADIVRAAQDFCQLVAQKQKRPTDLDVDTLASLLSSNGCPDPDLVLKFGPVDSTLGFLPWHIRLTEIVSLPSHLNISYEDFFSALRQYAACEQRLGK
Procedure: (§1) To detect AP-Am-Nogo-B binding, cultures were washed with Hanks' balanced salt solution (HBSS) containing 20 mM HEPES, pH 7.5, and 1 mg/mL BSA (HBH). The plates were then incubated with AP-Am-Nogo-B in DMEM containing 20 mM Hepes, pH 7.5, and 1 mg/mL BSA for 2 hours at 4° C. The bound AP-Am-Nogo-B was detected by using the Blue Substrate kit (Vector Laboratories). The blue staining was examined by using the ODYSSEY Infrared Imaging System (Li-Cor, Lincoln, Nebr.) and confirmed by microscopy. Alternatively, the bound AP-Am-Nogo-B was extracted with Triton X-100, and AP activity was colorimetrically quantified by using p-nitrophenyl phosphate (Sigma) as substrate after heat inactivation of endogenous AP. Non-specific binding was determined by measuring binding in the presence of a 100-fold molar excess of recombinant Am-Nogo-B lacking the AP fusion protein. Specific binding was determined by subtracting the non-specific binding from total binding. For determination of apparent Kd, the binding of AP-Am-Nogo-B was measured in triplicate as described above and the Kd value was quantified by using the Scatchard plot program of GraphPad PRISM (one-site binding, linear regression) using the ratio of bound ligand to free ligand as the y axis and bound ligand (pM) as the x axis.
A recombinant AP-Am-Nogo-B fusion protein was used to screen a cDNA expression library from human heart (500,000 independent clones) transfected into COS or CHO cells using Lipofectamine 2000 (Invitrogen). COS-7 cells were cultured in high-glucose DMEM with 10% FBS. CHO cells were cultured in MEM-α with 5% FBS.

NgBR-HA = target: T2, NgBR-HA (Homo sapiens, UniProt Q96E22); experiment: Immunoisolation of NgBR-HA from CHO cell extracts incubated with purified Am-Nogo-B, Western blot; assay type: binding; conditions: lysates of vector or NgBR-HA-transfected CHO cells, 25 μg Am-Nogo-B-myc
T2 construct: CHO cells stably expressing full-length NgBR with a C-terminal HA tag (CHO-NgBR-HA); expressed in transfected cells; host or cells: CHO
T2 sequence (Q96E22 1-293): T1 sequence (Q96E22 1-293)
Procedure: Single NgBR cDNA clones were isolated by sib selection and sequenced. A NgBR-HA was created in pIRESneo vector (BD, Palo Alto, Calif.), with the HA tag at the carboxy terminus. To access the physical interaction of NgBR with Am-Nogo-B, 50 μg of solubilized extracts of CHO cells expressing control vector (pIRESneo) or NgBR-HA was incubated with 25 μg of purified Am-Nogo-B or buffer for 2 hours at room temperature. The HA-tagged NgBR was immunoisolated with anti-HA immunobeads (Roche, Indianapolis, Ind.) and associated proteins analyzed by Western blotting. For the Western blots, expression of NgBR-HA was detected by using anti-HA (Roche) and NgBR (Imgenex), respectively, and beta-actin (Sigma) or Hsp90 (BD Biosciences-Pharmingen) was used to control for loading.

[2] = tested on: CHO cells expressing NgBR; experiment: Chemotaxis of CHO cells and CHO cells expressing NgBR in a Boyden chamber; assay type: cell-based; conditions: CHO cells versus CHO cells expressing NgBR
Procedure: (§2) Cell migration was examined in modified Boyden chambers using 10 nM each of purified recombinant AP, AP fusion of Nogo-66 (AP-Nogo-66) or Am-Nogo-B. The transwell inserts (Costar transwell inserts; Corning) were coated with a solution of 0.1% gelatin (Sigma) in PBS at 4° C. overnight and then air-dried. VEGF at 50 ng/mL (1.1 nM) or recombinant Am-Nogo-B at various concentrations dissolved in medium 199 containing 0.1% BSA was added in the bottom chamber of the Boyden apparatus. HUVEC (200,000 cells) suspended in a 100 μL aliquot of medium 199 containing 0.1% BSA was added to the upper chamber. After 5 hours incubation, cells on both sides of the membrane were fixed and stained with a Diff-Quik staining kit (Baxter Healthcare, Miami, Fla.). The average number of cells from five randomly chosen high-power (×400) fields on the lower side of the membrane was counted.
Using the method described above, CHO cells and CHO cells expressing NgBR were placed into a Boyden chamber and the chemotactic response to soluble Am-Nogo-B was examined.

A549 cells [3] = experiment: Growth in culture of A549 cells engineered to secrete Am-Nogo-B; assay type: cell-based, human; conditions: A549 cells secreting Am-Nogo-B versus vector control
Source text: Human A549 cells were stably transfected with vector alone (control) or a vector encoding a secreted form of Am-Nogo-B. The production of Am-Nogo-B and the effects on A549 cell growth in culture were examined.

A549 cells [4] = experiment: Tumors of A549 cells engineered to secrete Am-Nogo-B in immunodeficient mice; assay type: in vivo
HUVEC [5] = experiment: HUVEC migration in modified Boyden chambers; assay type: cell-based, human; conditions: recombinant Am-Nogo-B at various concentrations, 5 hours; similar in magnitude to 1.1 nM VEGF
Procedure: The migratory response of human umbilical vein endothelial cells (HUVEC) in response to a gradient of recombinant, purified alkaline phosphatase (AP) fusion protein expressing Am-Nogo-B or a recombinant purified Am-Nogo-B was examined. HUVEC were cultured in M199 with 20% FBS and endothelial cell growth supplement (ECGS).
as §2

HUVEC [6] = experiment: Tube formation of HUVEC in 3-D collagen cultures (total network length); assay type: cell-based, human; conditions: Am-Nogo-B 80 nM, 1-2 days
Procedure: HUVEC were resuspended (final concentration of 1×10^6) in a mixture containing rat tail type I collagen (1.5 mg/mL) 1/10 volume of 10×M199 and 1 M Hepes, neutralized with NaOH. Droplets (0.1 mL each) of the cell/collagen mixture were placed in cell culture dishes and allowed to polymerize for 15 minutes at 37° C. Growth medium containing either vehicle or agonist was then added to each well. HUVEC were allowed to form tube-like structures for 1-2 days. To evaluate tube formation in 3-D cultures, cells were photographed using the program OPENLAB (Improvision) and total-network length, defined as an elongation of cell into tube-like structures typically seen in 3-D cultures, was quantified in five fields for each replicate per experiment by using the measurement tools provided with OPENLAB.

NgBR [7] = target: T1, NgBR; experiment: AP fusion protein binding to COS cells transfected with the isolated NgBR cDNA; set-up: an isolated cDNA encoding NgBR is 2,636 base pairs encoding an open reading frame of 293 amino acids; expressed in transfected cells; host or cells: COS-7 (A4); conditions: COS cells (FIG. 6)
Procedure: as §1
For expression cloning of Am-Nogo-B receptor, pools of 5,000 arrayed clones from a human heart cDNA library (OriGene Technologies, Rockville, Md.) were transfected into COS-7 cells, and AP-Am-Nogo-B binding was assessed by using AP versus AP-Am-Nogo-B binding and detection of the AP product by near-infrared cell imaging (Li-Cor, Lincoln, Nebr.) or AP activity assays.
Single NgBR cDNA clones were isolated by sib selection and sequenced. […] The HA-tagged NgBR was immunoisolated with anti-HA immunobeads (Roche, Indianapolis, Ind.) and associated proteins analyzed by Western blotting. For the Western blots, expression of NgBR-HA was detected by using anti-HA (Roche) and NgBR (Imgenex), respectively, and beta-actin (Sigma) or Hsp90 (BD Biosciences-Pharmingen) was used to control for loading.

Endothelial cells [8] = experiment: Blocking of AP-Am-Nogo-B binding to endothelial cells; conditions: 20 nM and 100 nM
Procedure: as §1, with “axis. […]” for “axis.”

Endothelial cells [9] = experiment: Am-Nogo-B-induced migration of endothelial cells, inhibition by NgBR ectodomain peptides or fusion protein; assay type: cell-based; conditions: endothelial cells (FIG. 35)
Procedure: as §2
Endothelial cells were incubated with vehicle (control) of one of peptides P1-P4 (200 nM each) in the presence of Am-Nogo-B (100 nM).
Similarly, treatment of endothelial cells with mFc-ecto, but not mFc, blocked Am-Nogo-B-induced cell migration (FIG. 35).

[10] = Lipid transferase activity, [1-14C]IPP incorporation into polyprenyl diphosphates; assay type: biochemical; conditions: 1 μg immunoisolated protein, 20 minutes at 37° C.
Procedure: NgBR and NgBR lacking the cytoplasmic domain (NgBR-CD) was immunoisolated from CHO cells expressing NgBR-HA or NgBR-CD by using anti-HA matrix beads. Lipid transferase activity was measured by determining the amount of [1-^14C]IPP (isopentenyl pyrophosphate) incorporated into butanol-extractable polyprenyl diphosphates. The activity was assayed in a 50 μL reaction containing 50 mM Hepes, pH 7.5, 2 mM MgCl2, 5 mM KF, 1 mM DTT, 0.5% CHAPS, 50 μM [1-^14C]IPP (0.15 μCi per reaction) and 50 μM allylic isoprenoid diphosphate (farnesyl diphosphate, geranylgeranyl diphosphate). The reaction was started by the addition of 1 μg of protein and allowed to proceed for 20 minutes at 37° C. Mouse liver extract (1 μg) was used as a positive control for the assay. The reaction was stopped by the addition of 0.5 mL of 1-butanol saturated with water, […] followed by the addition of 0.5 mL of 2 M KCl. An aliquot of the butanol phase was removed for scintillation counting using SafeScint scintillation (American Bioanalytic, Natick, Mass.).

[11] = A549 tumors expressing Am-Nogo-B

displacement of the binding of 10 nM AP-Am-Nogo-B from transfected CHO cells (NgBR [1]): dose-dependently displaced
binding to COS cells transfected with the isolated NgBR cDNA (NgBR [7]): afforded the binding
B1: Am-Nogo-B: Residues 1-200 of Nogo-B, the amino terminus; recombinant, purified, with Myc-His tag (protein)
chain: MEDLDQSPLVSSSDSPPRPQPAFKYQFVREPEDEEEEEEEEEEDEDEDLEELEVLERKPAAGLSAAPVPTAPAAGAPLMDFGNDFVPPAPRGPLPAAPPVAPERQPSWDPSPVSSTVPAPSPLSAAAVSPSKLPEDDEPPARPPPPPPASVSPQAEPVWTPPAPAPAAPPSTPAAPKRRGSSGSVVVDLLYWRDIKKTGV
modifications: left off: small tags and cut ends
notes: Residues 1-200 of Nogo-B, the amino terminus; recombinant, purified, with Myc-His tag
physical interaction with NgBR-HA (immunopurification) (NgBR-HA): interacted with lysates only when the receptor was expressed
chemotactic response to soluble Am-Nogo-B [2]: transfection of NgBR was required
basal growth of A549 cells in culture (A549 cells [3]): did not effect the basal growth
growth rate of tumors in vivo (A549 cells [4]; A549 cells secreting Am-Nogo-B versus vector control, immunodeficient mice): increased the growth rate of tumors
lymphangiogenesis (LYVE-1 staining) (A549 cells [4]; [11]): reduced lymphangiogenesis
tumor angiogenesis (PECAM-1-positive tumor cells) (A549 cells [4]; [11]): increased angiogenesis
tumor associated macrophages (F4/80 positive cells) (A549 cells [4]; [11]): increase tumor associated macrophages
HUVEC migration, dose dependence (HUVEC [5]): dose-dependently increases migration
tube formation (HUVEC [6]): stimulated an increase in tube formation

B2: mFc-ecto: Fc fusion of amino acids 52-116 of NgBR (SEQ ID NO:1), HA-, heptahistidine tagged fusion protein (protein)
chain: LGFTLRKPPAVGRNRRHHRHPRGGSCLAAAHHRMRWRADGRSLEKLPVHMGLVITEVEQEPSFSD
modifications: also: Fc fusion, HA tag, heptahistidine tag
binding of AP-Am-Nogo-B to endothelial cells in presence of Fc protein (Endothelial cells [8]): blocked
Am-Nogo-B-induced cell migration in presence of Fc protein (Endothelial cells [9]): blocked

B3: NgBR: human Nogo-B receptor, 293 amino acids, SEQ ID NO:1; immunoisolated as NgBR-HA from CHO cells (protein, listed as Homo sapiens)
chain: T1 sequence (Q96E22 1-293)
modifications: HA tag
notes: immunoisolated as NgBR-HA from CHO cells
lipid transferase activity [10]: negative
